We go through four molecules from US20200384061A1 (JCR PHARMACEUTICALS, published 2020).

Like-named read-outs stand apart in the source and are kept apart here.

The target of test [1] is human TrkB (GenBank Acc. No. NP_001018074.1) expressed in CHO cells (CHO-TrkB cells) (human, UniProt Q16620 32-822). Nature of the test: cell-based or functional assay.
The target in test [2] is T1, recombinant human TfR (r human TfR, Sino Biological Inc.), extracellular region of hTfR with N-terminal … (human, UniProt P02786 89-760).
T1 construct: also called r human TfR-ECD (Histag); recombinant hTfR; not shown: histidine tag added to the N-terminus
The test can be described thus: BLI (OctetRED96); fusion protein captured via biotin-labeled anti-human BDNF antibody on SA biosensor, TfR in solution. Here is the method: (§1) Affinities of the hBDNF-anti-hTfR antibody (3N) 1 prepared in Example 22, to human TfR and to monkey TfR were measured. The measurement was generally performed by the following method. The biotin-labeled rabbit anti-human BDNF polyclonal antibodies (anti-human BDNF antibodies: PeproTech Corporation) was diluted with HBS-P+(1% BSA) (10 mM HEPES containing 150 mM NaCl, 50 μM EDTA, 0.05% Surfactant P20, and 1% BSA) to prepare the 15 μg/mL of solution, and the solution was designated as ligand solution 1. The purified product of an anti-hTfR antibody fusion BDNF (hBDNF-anti-hTfR antibody (3N) 1) was diluted with HBS-P+(1% BSA), and the solution was designated as ligand solution 2. And, as the reference control sample, the purified product of the hBDNF-anti-hTfR antibody (3) 1 obtained in Example 15-3 was also diluted with HBS-P+(1% BSA) to prepare ligand solution 3. r human TfR and r monkey TfR were respectively two fold serial diluted with HBS-P+(1% BSA) to prepare seven different concentrations of 0.78125 to 50 nM ([…] to 3.74 μg/mL). These TfR solution were used as TfR sample solutions.
(§2) The OctetRED96 was run under the condition shown in the following Table 15-3 to immobilize the anti-human BDNF antibody onto the sensor. Subsequently, after the OctetRED96 was run under the condition shown in the following Table 15-4 to obtain data, binding interaction curve was fitted to a 1:1 binding model or to a 2:1 binding model using the analysis software attached to the OctetRED96, the association rate constant (kon) and the dissociation rate constant (koff) of the anti-hTfR antibody fusion BDNF to r human TfR, and to r monkey TfR were measured, and the dissociation constant (KD) were calculated. The measurement was performed at 25° C. to 30° C.

Test [3] addresses T2, recombinant monkey TfR (r monkey TfR, Sino Biological Inc.), extracellular region of cynomolgus monkey TfR … (cynomolgus monkey (Macaca fascicularis), UniProt Q5RDH6 89-760 (Pongo abelii entry)).
T2 construct: not shown: histidine tag added to the N-terminus
T2 chain: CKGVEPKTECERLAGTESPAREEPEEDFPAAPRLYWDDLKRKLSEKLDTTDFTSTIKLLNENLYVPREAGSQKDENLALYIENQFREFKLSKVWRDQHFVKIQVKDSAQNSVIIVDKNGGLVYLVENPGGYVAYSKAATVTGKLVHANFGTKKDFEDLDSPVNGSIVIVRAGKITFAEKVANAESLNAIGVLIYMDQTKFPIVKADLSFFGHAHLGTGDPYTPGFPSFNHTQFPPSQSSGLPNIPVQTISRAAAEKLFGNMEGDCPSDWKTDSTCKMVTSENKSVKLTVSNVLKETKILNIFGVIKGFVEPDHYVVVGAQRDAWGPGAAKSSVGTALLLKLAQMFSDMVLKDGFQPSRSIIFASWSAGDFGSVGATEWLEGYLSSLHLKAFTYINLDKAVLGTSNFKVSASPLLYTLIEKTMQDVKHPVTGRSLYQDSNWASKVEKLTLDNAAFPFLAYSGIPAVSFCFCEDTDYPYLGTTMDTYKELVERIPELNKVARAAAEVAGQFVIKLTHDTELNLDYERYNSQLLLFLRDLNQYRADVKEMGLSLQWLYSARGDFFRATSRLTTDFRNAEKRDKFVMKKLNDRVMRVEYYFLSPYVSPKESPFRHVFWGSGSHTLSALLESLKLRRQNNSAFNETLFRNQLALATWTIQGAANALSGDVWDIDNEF
The description is as above. Here is the method: as §1, §2

Test [4] concerns the target TrkB receptor on rat primary cultured neurons (corpus striatum of rat embryo) (rat, UniProt Q63604 32-821). Nature of the test: cell-based or functional assay.
The target in test [5] is T1, recombinant human TfR (r human TfR, …). Nature of the test: BLI (OctetRED96); fusion protein captured via biotin-labeled anti-human BDNF antibody on SA biosensor, TfR in solution. On the procedure: (§3) Affinities of a hBDNF-anti-hTfR antibody (3N) ABD to human TfR, monkey TfR, and human serum albumin (HSA) were measured on OctetRED96 (ForteBio Corporation, a division of Pall Corporation) which is a system for biomolecular interaction analysis utilizing biolayer interferometry (BLI), as same as Example 25. The measurement was generally performed by operation manual attached to the OctetRED96.
(§4) The biotin-labeled rabbit anti-human BDNF polyclonal antibodies (anti-human BDNF antibody: PeproTech Corporation) was diluted with HBS-P+(1% BSA) (10 mM HEPES containing 150 mM NaCl, 50 μM EDTA, 0.05% Surfactant P20, and 1% BSA) to prepare 25 μg/mL of solution, and the solution was designated as ligand solution 1. A purified product of an hBDNF-anti-hTfR antibody (3N) ABD was diluted with HBS-P+, and the solution was designated as ligand solution 2. r human TfR and r monkey TfR were respectively two-fold serial diluted with HBS-P+ to prepare seven-different concentration of 0.78125 to 50 nM (0.0585 to 3.74 μg/mL). These TfR solution were designated as a TfR sample solution. The r human TfR and the r monkey TfR, those described in Example 7 were used. And, human serum albumin preparation (HSA) (blood donation albumin 25-Nichiyaku, Nihon Pharmaceutical Co., Ltd.) was two-fold serial diluted with HBS-P+ to prepare solution of seven-different concentration of 3.13 to 200 nM (0.208 to 13.3 μg/mL). The HSA solution were designated as an HSA sample solution.
(§5) The OctetRED96 was run under the condition shown in the following Table 15-3 described in Example 25 to immobilize the anti-human BDNF antibody onto the sensor. Subsequently, after the OctetRED96 was run under the condition shown in Table 16-2 to obtain data, binding interaction curve was fitted to a 1:1 binding model using the analysis software attached to the OctetRED96, the association rate constant (kon) and the dissociation rate constant (koff) of the hBDNF-anti-hTfR antibody (3N) ABD, to r human TfR, r monkey TfR, and HSA were measured, and a dissociation constant (KD) were calculated. The measurement was performed at 25° C. to 30° C.
The source holds these as a separate data set.

The target of test [6] is T2, recombinant monkey TfR (r monkey TfR, …). The description is as above. Here is the method: as §3, §4, §5
Test [7] addresses T3, human serum albumin preparation (HSA) (blood donation albumin 25-Nichiyaku, Nihon Pharmaceutical Co., Ltd.) (human, UniProt P02768 25-609).
T3 construct: mature
The test can be described thus: BLI (OctetRED96); fusion protein captured via biotin-labeled anti-human BDNF antibody on SA biosensor, HSA in solution. On the procedure: as §3, §4
as §5, with “The measurement was performed at 25° C. to 30° C.” left out

Test [8] has as its target T2, recombinant monkey TfR (r monkey TfR, …). Nature of the test: BLI (OctetRED96).

T3 sequence (P02768 25-609): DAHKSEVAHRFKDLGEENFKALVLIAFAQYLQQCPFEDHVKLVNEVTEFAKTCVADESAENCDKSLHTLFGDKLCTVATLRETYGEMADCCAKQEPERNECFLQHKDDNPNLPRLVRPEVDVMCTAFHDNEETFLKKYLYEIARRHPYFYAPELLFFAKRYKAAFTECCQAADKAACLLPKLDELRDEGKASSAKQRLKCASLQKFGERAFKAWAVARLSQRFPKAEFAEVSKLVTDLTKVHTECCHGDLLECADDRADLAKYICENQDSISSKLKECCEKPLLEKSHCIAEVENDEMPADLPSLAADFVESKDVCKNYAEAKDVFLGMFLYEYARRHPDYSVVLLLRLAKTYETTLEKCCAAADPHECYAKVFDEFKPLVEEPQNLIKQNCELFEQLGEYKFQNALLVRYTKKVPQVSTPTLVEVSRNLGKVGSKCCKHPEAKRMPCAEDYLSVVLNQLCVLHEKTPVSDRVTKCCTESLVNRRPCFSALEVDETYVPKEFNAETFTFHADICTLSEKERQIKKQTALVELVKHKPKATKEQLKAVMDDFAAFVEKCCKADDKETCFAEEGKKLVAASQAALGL
Chain of human TrkB (GenBank Acc. No. NP_001018074.1) expressed in CHO cells (CHO-TrkB cells) (Q16620 32-822): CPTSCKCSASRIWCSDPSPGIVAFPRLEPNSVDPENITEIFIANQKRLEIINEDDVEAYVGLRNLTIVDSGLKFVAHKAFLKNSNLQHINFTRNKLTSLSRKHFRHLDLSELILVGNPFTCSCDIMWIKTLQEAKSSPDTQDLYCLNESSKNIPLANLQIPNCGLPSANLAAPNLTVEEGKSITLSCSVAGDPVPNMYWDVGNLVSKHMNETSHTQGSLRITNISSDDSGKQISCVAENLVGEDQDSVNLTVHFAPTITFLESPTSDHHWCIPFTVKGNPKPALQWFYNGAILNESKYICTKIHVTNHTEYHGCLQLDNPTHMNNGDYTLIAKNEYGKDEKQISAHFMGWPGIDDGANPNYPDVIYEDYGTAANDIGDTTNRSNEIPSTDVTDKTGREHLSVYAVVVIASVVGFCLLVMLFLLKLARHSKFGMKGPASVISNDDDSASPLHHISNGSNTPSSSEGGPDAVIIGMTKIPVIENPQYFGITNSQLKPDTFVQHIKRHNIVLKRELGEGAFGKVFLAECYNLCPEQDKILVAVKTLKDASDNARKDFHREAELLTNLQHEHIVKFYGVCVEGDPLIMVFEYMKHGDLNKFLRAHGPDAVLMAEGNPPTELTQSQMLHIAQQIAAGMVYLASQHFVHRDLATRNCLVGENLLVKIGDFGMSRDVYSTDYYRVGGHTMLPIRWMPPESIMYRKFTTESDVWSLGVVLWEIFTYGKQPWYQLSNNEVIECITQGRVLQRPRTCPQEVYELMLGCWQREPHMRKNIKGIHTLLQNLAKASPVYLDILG
Chain of TrkB receptor on rat primary cultured neurons (corpus striatum of rat embryo) (Q63604 32-821): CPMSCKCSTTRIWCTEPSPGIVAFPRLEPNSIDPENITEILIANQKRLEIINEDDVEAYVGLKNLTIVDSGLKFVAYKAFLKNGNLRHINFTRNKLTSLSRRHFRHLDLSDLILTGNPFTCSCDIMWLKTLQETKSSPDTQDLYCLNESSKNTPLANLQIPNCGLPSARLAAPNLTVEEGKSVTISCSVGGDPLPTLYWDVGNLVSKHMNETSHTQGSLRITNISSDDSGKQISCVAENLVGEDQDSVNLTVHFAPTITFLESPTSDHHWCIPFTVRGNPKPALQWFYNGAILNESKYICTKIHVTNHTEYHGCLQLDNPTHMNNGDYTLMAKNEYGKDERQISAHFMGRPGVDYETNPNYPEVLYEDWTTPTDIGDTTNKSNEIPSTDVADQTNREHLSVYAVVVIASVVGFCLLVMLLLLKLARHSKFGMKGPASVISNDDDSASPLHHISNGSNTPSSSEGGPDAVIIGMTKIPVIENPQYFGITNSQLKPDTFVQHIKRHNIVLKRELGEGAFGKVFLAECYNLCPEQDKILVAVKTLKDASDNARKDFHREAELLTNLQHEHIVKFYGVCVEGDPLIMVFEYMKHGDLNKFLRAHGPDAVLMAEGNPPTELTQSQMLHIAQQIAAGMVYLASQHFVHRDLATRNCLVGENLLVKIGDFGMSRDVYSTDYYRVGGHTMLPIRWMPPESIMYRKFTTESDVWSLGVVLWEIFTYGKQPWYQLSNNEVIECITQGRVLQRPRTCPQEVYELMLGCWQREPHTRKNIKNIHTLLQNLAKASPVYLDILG

B1: hBDNF-anti-hTfR antibody (3) 1 (other)
heavy: HSDPARRGELSVCDSISEWVTAADKKTAVDMSGGTVTVLEKVPVSKGQLKQYFYETKCNPMGYTKEGCRGIDKRHWNSQCRTTQSYVRALTMDSKKRIGWRFIRIDTSCVCTLTIKRGRGSGGGGSGGGGSGGGGSGGGGSGGGGSEVQLVQSGAEVKKPGESLKISCKGSGYSFTNYWLGWVRQMPGKGLEWMGDIYPGGDYPTYSEKFKVQVTISADKSISTAYLQWSSLKASDTAMYYCARSGNYDEVAYWGQGTLVTVSSASTKGPSVFPLAPSSKSTSGGTAALGCLVKDYFPEPVTVSWNSGALTSGVHTFPAVLQSSGLYSLSSVVTVPSSSLGTQTYICNVNHKPSNTKVDKKVEPKSCDKTHT
light: DIVMTQTPLSLSVTPGQPASISCRSSQSLVHSNGNTYLHWYLQKPGQSPQLLIYKVSNRFSGVPDRFSGSGSGTDFTLKISRVEAEDVGVYYCSQSTHVPWTFGQGTKVEIKRTVAAPSVFIFPPSDEQLKSGTASVVCLLNNFYPREAKVQWKVDNALQSGNSQESVTEQDSKDSTYSLSSTLTLSKADYEKHKVYACEVTHQGLSSPVTKSFNRGEC
Usually Kd stands for the free concentration of one partner at which half of the binding sites on the other are occupied at equilibrium, for simple one-to-one binding. Turning to B1, the “BDNF activity (TrkB agonistic: EC50, nmol/L)” value (“BDNF activity” below) in test [1] stood at 0.16 nmol/L. For the same molecule, the figures for the Kd in test [2] and in test [3] were 0.251 nM and 39.4 nM, respectively.

B2: hBDNF-anti-hTfR antibody (3N) 1 (other)
heavy: HSDPARRGELSVCDSISEWVTAADKKTAVDMSGGTVTVLEKVPVSKGQLKQYFYETKCNPMGYTKEGCRGIDKRHWNSQCRTTQSYVRALTMDSKKRIGWRFIRIDTSCVCTLTIKRGRGGGGSGGGGSGGGGSGGGGSGGGGSEVQLVQSGAEVKKPGESLKISCKGSGYSFMNYWLGWVRQMPGKGLEWMGDIYPGGDYPTYSEKFKVQVTISADKSISTAYLQLSSLKASDTAMYYCARSGNYDEVAYWGQGTLVTVSSASTKGPSVFPLAPSSKSTSGGTAALGCLVKDYFPEPVTVSWNSGALTSGVHTFPAVLQSSGLYSLSSVVTVPSSSLGTQTYICNVNHKPSNTKVDKKVEPKSCDKTHT
light: B1 light
notes: copies set to 2 on that ground; also called anti-hTfR antibody fusion BDNF; hBDNF-humanized anti-hTfR antibody fusion protein
As a reminder, the koff is a measure of how fast the partners let go of each other. For orientation: kon means a measure of how fast the partners come together. With B2, in test [4], the “Erk phosphorylation activity (EC50, nmol/L)” value was found to be 0.02 nmol/L. In addition, in test [1], the “BDNF activity” value stood at 0.43 nmol/L. In addition, in test [2], the equilibrium dissociation constant (Kd) was 0.00742 nM, the off-rate constant (koff) was determined as 3.54e-06 s⁻¹ and the kon is 477000 M⁻¹ s⁻¹. Besides, in test [3], the Kd came out at 0.794 nM, the koff was found to be 0.000196 s⁻¹ and the kon was determined as 245000 M⁻¹ s⁻¹.

B3: hBDNF-anti-hTfR antibody (3N) ABD (other)
heavy: HSDPARRGELSVCDSISEWVTAADKKTAVDMSGGTVTVLEKVPVSKGQLKQYFYETKCNPMGYTKEGCRGIDKRHWNSQCRTTQSYVRALTMDSKKRIGWRFIRIDTSCVCTLTIKRGRGGGGSGGGGSGGGGSGGGGSGGGGSEVQLVQSGAEVKKPGESLKISCKGSGYSFMNYWLGWVRQMPGKGLEWMGDIYPGGDYPTYSEKFKVQVTISADKSISTAYLQLSSLKASDTAMYYCARSGNYDEVAYWGQGTLVTVSSASTKGPSVFPLAPSSKSTSGGTAALGCLVKDYFPEPVTVSWNSGALTSGVHTFPAVLQSSGLYSLSSVVTVPSSSLGTQTYICNVNHKPSNTKVDKKVGGGGSGGGGSGGGGSLAEAKVLALRELDKYGVSDYYKDLIDKAKTVEGVKALIDEILAALP
light: B1 light
notes: BDNF-Fab-ABD fusion
B3: in test [5], the equilibrium dissociation constant (Kd) worked out at 0.0566 nM, the koff worked out at 4e-05 s⁻¹ and the on-rate constant (kon) came to 707000 M⁻¹ s⁻¹. Further, in test [6], the Kd stood at 0.626 nM, the dissociation rate constant (koff) was found to be 0.000145 s⁻¹ and the on-rate (kon) was 231000 M⁻¹ s⁻¹. The “Erk phosphorylation activity (EC50, nmol/L)” value in test [4] was 0.02 nmol/L. Besides, the “BDNF activity” value in test [1] is 0.3 nmol/L. In addition, in test [7], the equilibrium dissociation constant (Kd) amounted to 13.5 nM, the koff came to 0.000829 s⁻¹ and the association rate constant (kon) is 61300 M⁻¹ s⁻¹.

B4: humanized anti-hTfR antibody No. 3N (antibody, human IgG1, kappa, V domains shown)
VH: EVQLVQSGAEVKKPGESLKISCKGSGYSFMNYWLGWVRQMPGKGLEWMGDIYPGGDYPTYSEKFKVQVTISADKSISTAYLQLSSLKASDTAMYYCARSGNYDEVAYWGQGTLVTVSS
VL: DIVMTQTPLSLSVTPGQPASISCRSSQSLVHSNGNTYLHWYLQKPGQSPQLLIYKVSNRFSGVPDRFSGSGSGTDFTLKISRVEAEDVGVYYCSQSTHVPWTFGQGTKVEIKR
notes: IgG1; Same light chain as humanized No. 3; also called Humanized anti-hTfR antibody 3N
With B4, in test [8], the “KD relative to that of the humanized anti-hTfR antibody No. 3” value is roughly 0.033 fold and the “affinity relative to that of the humanized anti-hTfR antibody No. 3” value is roughly 30 fold.
